System: T1, SpuFz1 (FZID16) (Spizellomyces punctatus)
T1 sequence: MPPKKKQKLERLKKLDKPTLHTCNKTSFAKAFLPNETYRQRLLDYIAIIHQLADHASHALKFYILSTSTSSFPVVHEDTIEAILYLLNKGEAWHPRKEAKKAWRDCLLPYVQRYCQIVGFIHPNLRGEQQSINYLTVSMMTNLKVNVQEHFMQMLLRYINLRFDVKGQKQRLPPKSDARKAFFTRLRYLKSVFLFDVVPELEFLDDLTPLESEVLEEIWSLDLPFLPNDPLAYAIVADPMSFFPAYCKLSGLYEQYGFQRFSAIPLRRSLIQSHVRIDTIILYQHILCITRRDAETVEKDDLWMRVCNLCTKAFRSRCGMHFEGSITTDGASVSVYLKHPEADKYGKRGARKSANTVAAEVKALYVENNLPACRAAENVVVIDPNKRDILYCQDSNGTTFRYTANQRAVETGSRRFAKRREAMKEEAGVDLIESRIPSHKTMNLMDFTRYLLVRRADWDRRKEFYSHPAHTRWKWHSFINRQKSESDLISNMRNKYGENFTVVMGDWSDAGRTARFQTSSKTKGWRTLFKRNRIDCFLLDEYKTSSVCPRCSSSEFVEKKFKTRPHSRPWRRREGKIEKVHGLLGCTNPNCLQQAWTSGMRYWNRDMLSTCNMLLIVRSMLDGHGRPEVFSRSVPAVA
Assay: cell_activity
Details: HEK293FT, TAM CATA

Sequence: GUCCACGGACUGCUGGGUUGUACCAACCCUAACUGUUUGCAGCAAGCCUGGACAUCGGGAAUGCGCUACUGGAAUCGAGAUAUGCUGUCAACCUGCAACAUGCUAUUGAUUGUGAGAUCAAUGUUGGAUGGACACGGUAGACCAGAAGUGUUCAGCAGGAGUGUUCCAGCCGUAGCGUAGAACGUAGAUUGGUUAGAUUAGGUUUUCCGAGCCGGUUGUCGCGCGGUUCAAUCCCUGGUGCGGGUGCUAGUGCCAAUACCCACCGGCUCCGCACUAGCAUUCCUUAACACAUCACU / GCATTCCTTAACACATCACT / AGTGATGTGTTAAGGAATGC
- activity (gID7, longest initial scaffold): 0.78 % indel

Sequence: GUUUUCCGAGCCGGUUGUCGCGCGGUUCAAUCCCUGGUGCGGGUGCUAGUGCCAAUACCCACCGGCUCCGCACUAGCAUUCCUUAACACAUCACU / GCATTCCTTAACACATCACT / AGTGATGTGTTAAGGAATGC
- activity (gID7, minimal omegaRNA): 0.17 % indel
